Among the data in publication doi:10.1101/2023.08.10.552762 are stoichiometry N, binding result and Kd values, retold here.

For series [1], the target named is Escherichia coli SduA (Shedu system, E. coli KTE10) (Escherichia coli KTE10). Description: SEC-MALS.
In series [2] the target is T1, EcSduA (Shedu SduA) (Escherichia coli, UniProt PDB:8PS5_1 1-411).
T1 sequence: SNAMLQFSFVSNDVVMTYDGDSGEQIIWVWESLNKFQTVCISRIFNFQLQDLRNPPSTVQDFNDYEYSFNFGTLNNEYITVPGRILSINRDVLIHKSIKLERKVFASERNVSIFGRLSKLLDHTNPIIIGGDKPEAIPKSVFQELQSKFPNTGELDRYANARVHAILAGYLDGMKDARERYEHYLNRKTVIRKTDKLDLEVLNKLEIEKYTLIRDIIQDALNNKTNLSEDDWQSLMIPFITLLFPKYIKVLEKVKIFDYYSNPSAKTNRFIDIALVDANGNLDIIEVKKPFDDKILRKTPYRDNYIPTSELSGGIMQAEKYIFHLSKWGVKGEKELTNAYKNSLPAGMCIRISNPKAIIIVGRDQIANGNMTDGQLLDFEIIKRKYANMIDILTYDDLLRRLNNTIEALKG
Description: cryo-EM structure.

Series [3] has as its target T1, EcSduA (Shedu SduA). Description: fluorescence polarization.

In series [1], “Escherichia coli SduA (Shedu system, E. coli KTE10) (enzyme)” showed a stoichiometry N of 4.

B1: 40 bp palindromic dsDNA oLL314 (dsDNA)
DNA 1: CTAGTGCATCTGAATCGTCATGACGATTCAGATGCACTAG
DNA 2: CTAGTGCATCTGAATCGTCATGACGATTCAGATGCACTAG
For the molecule B1, the binding result in the series with EcSduA (Shedu SduA) [2] was “binds”.

B2: 40 bp dsDNA oLL321/oLL322 (dsDNA)
DNA 1: GATACCAGCTCTATGTTGACCTCTCAGATCGGCACTACTT
DNA 2: AAGTAGTGCCGATCTGAGAGGTCAACATAGAGCTGGTATC
In the series with EcSduA (Shedu SduA) [3], B2 came in with a dissociation constant Kd of 11.9 ± 0.4 nM.
